The text below walks through data of patent US20110135647A1 (ONCOTHERAPY SCIENCE, published 2011).

In assay [1] the target is T1, HA-tagged A7322 (A7322-HA) (human, UniProt Q5TH69 1-2177).
T1 construct: Expressed in COS-7 cells for the ERα co-immunoprecipitation; not shown: HA tag
In words: co-immunoprecipitation from co-transfected COS-7 cells, anti-FLAG IP / anti-HA blot and the reverse.

Assay [2] addresses T2, myc-tagged p97 (p97/VCP-myc-6×His) (human, UniProt P55072 1-806).
T2 construct: Expressed in COS-7 cells; also called myc-p97; p97/VCP-myc-His; not shown: C-terminal myc-6×His tag of pcDNA3.1-myc-His
The assay can be described thus: co-immunoprecipitation with HA-tag antibody from co-transfected cells.

Assay [3] addresses T3, GST-tagged PP1α (GST-PP1α) (human, UniProt P62136 1-330).
T3 construct: also called GST-fused PP1α; not shown: glutathione S-transferase (GST) tag of the pCAGGS-nGST vector, N-terminal
In words: anti-HA immunoprecipitation from co-transfected COS-7 cells, anti-GST blot.

T3 sequence (P62136 whole entry, the tested form may be a part): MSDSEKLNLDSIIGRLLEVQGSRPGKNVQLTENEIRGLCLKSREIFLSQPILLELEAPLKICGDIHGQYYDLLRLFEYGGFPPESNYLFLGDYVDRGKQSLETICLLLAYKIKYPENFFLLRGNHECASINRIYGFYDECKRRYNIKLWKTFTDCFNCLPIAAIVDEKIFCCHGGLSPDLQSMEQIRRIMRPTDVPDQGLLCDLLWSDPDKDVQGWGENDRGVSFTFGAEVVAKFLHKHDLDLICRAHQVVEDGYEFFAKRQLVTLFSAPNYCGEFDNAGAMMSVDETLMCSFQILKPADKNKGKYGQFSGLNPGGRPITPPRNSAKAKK
T1 sequence (Q5TH69 whole entry): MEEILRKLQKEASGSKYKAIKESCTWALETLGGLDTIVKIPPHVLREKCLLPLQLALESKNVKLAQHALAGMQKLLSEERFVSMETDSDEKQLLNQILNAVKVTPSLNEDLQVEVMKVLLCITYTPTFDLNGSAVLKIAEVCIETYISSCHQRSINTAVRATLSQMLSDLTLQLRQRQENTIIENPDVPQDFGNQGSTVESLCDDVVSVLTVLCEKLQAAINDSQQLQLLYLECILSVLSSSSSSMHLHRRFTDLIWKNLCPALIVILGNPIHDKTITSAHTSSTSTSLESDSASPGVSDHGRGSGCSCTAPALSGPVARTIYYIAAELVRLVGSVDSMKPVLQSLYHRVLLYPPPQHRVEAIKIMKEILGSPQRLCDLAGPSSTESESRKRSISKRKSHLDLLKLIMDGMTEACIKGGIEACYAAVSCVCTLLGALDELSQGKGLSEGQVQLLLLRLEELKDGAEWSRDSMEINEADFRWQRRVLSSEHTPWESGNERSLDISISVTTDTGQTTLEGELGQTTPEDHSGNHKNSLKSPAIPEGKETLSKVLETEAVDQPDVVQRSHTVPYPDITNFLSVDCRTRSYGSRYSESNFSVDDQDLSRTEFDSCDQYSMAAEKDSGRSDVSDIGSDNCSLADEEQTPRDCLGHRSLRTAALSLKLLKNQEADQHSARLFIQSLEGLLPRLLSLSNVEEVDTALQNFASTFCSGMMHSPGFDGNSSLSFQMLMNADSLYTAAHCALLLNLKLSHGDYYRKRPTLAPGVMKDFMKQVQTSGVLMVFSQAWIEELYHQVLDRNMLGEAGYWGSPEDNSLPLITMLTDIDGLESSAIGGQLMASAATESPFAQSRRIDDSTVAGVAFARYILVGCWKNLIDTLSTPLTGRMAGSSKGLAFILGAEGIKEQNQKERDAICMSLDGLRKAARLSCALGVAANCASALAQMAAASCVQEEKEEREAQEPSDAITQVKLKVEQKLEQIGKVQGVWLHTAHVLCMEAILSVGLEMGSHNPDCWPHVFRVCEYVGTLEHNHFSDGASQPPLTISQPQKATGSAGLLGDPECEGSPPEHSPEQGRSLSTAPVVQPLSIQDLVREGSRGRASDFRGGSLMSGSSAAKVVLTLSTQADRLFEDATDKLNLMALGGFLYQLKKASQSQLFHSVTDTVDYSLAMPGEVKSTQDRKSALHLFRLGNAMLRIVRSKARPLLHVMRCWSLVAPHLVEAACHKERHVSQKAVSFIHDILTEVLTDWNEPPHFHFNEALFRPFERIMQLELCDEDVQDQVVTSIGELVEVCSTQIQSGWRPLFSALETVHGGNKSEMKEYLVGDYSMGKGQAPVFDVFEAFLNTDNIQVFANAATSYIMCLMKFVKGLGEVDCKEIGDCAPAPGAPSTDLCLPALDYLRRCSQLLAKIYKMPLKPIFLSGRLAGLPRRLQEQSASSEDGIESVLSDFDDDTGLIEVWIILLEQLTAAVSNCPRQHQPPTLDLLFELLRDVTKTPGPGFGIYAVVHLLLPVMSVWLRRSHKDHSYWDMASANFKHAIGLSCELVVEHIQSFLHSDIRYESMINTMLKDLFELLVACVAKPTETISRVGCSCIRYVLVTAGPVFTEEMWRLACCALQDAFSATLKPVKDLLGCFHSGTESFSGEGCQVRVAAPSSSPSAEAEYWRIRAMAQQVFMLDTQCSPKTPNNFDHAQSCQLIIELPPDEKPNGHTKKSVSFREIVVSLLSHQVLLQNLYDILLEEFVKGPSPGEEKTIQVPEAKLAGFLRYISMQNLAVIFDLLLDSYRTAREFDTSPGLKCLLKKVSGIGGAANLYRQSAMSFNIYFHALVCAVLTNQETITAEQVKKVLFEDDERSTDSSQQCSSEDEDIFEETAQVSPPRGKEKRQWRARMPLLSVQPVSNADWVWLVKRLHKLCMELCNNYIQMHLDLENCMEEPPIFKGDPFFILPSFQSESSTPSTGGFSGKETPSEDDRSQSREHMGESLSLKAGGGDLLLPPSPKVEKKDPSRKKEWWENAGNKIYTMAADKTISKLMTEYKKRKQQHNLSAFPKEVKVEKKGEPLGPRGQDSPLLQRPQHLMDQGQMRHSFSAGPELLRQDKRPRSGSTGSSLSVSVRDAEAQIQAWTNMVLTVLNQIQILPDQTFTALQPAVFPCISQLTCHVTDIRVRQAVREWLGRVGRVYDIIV
T2 sequence (P55072 whole entry): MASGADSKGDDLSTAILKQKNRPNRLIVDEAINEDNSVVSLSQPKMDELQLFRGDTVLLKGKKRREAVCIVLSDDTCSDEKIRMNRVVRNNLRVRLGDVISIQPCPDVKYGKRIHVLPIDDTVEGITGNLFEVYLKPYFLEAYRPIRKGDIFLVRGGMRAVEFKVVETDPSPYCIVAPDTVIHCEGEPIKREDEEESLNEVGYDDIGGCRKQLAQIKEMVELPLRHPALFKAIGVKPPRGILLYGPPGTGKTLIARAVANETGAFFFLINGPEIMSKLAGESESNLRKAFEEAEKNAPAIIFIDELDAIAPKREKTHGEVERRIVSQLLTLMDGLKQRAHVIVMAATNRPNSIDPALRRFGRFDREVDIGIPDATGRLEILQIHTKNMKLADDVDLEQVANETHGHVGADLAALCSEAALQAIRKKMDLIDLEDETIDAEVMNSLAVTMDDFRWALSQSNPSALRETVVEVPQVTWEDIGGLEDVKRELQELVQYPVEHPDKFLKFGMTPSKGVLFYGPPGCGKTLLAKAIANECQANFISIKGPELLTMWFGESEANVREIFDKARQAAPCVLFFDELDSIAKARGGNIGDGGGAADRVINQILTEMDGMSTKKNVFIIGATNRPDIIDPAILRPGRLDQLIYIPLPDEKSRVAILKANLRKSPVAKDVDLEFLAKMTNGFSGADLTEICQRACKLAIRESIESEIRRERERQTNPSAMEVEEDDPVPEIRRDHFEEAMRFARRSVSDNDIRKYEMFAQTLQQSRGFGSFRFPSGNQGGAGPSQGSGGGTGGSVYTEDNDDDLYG

B1: FLAG-tagged ERα (ERα-FLAG) (receptor, UniProt P03372 1-595, looked up)
chain: MTMTLHTKASGMALLHQIQGNELEPLNRPQLKIPLERPLGEVYLDSSKPAVYNYPEGAAYEFNAAAAANAQVYGQTGLPYGPGSEAAAFGSNGLGGFPPLNSVSPSPLMLLHPPPQLSPFLQPHGQQVPYYLENEPSGYTVREAGPPAFYRPNSDNRRQGGRERLASTNDKGSMAMESAKETRYCAVCNDYASGYHYGVWSCEGCKAFFKRSIQGHNDYMCPATNQCTIDKNRRKSCQACRLRKCYEVGMMKGGIRKDRRGGRMLKHKRQRDDGEGRGEVGSAGDMRAANLWPSPLMIKRSKKNSLALSLTADQMVSALLDAEPPILYSEYDPTRPFSEASMMGLLTNLADRELVHMINWAKRVPGFVDLTLHDQVHLLECAWLEILMIGLVWRSMEHPGKLLFAPNLLLDRNQGKCVEGMVEIFDMLLATSSRFRMMNLQGEEFVCLKSIILLNSGVYTFLSSTLKSLEEKDHIHRVLDKITDTLIHLMAKAGLTLQQQHQRLAQLLLILSHIRHMSNKGMEHLYSMKCKNVVPLYDLLLEMLDAHRLHAPTSRGGASVEETDQSHLATAGSTSSHSLQKYYITGEAEGFPATV
notes: Expressed in COS-7 cells; also called FLAG-ERα; estrogen receptor α; not shown: FLAG tag
For B1, the binding result in assay [1] is “no binding”.

B2: HA-tagged PBK/TOPK (HA-PBK/TOPK), wild type (enzyme)
chain: MEGISNFKTPSKLSEKKKSVLCSTPTINIPASPFMQKLGFGTGVNVYLMKRSPRGLSHSPWAVKKINPICNDHYRSVYQKRLMDEAKILKSLHHPNIVGYRAFTEANDGSLCLAMEYGGEKSLNDLIEERYKASQDPFPAAIILKVALNMARGLKYLHQEKKLLHGDIKSSNVVIKGDFETIKICDVGVSLPLDENMTVTDPEACYIGTEPWKPKEAVEENGVITDKADIFAFGLTLWEMMTLSIPHINLSNDDDDEDKTFDESDFDDEAYYAALGTRPPINMEELDESYQKVIELFSVCTNEDPKDRPSAAHIVEALETDV
notes: Expressed in COS-7 or T47D cells; also called HA-tagged TOPK; WT; not shown: N-terminal HA tag (pCAGGSnHA)
Consider B2, for which the binding result in assay [2] is recorded as “no binding”; in assay [3], “binds”.
